This note sets out measurements from patent US20210347882A1 (Johns Hopkins, published 2021).

Assay [1] deals with T1, human Resistin (human, UniProt Q9HD89 19-108).
T1 construct: The sandwich ELISA used the R&D kit standard; also called hResistin; huRes
T1 sequence (looked up): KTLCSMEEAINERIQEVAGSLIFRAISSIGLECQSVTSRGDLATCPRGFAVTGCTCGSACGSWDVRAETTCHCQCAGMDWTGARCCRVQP
Nature of the assay: QC ELISA, hResistin coated 5 µg/well, IgG supernatant, FITC-goat anti-human IgG. Here is the method:
(§1) As a result, 4 IgGs (Clones 1, 2, 13 and 18) bind to two targets positively. hRELMβ: 0.5 μg/well; hResistin: 5 μg/well; secondary antibody: FITC-goat anti-human IgG pAb.
(An ELISA detects its analyte on a solid surface through an enzyme-linked reagent.)

Assay [2] concerns the target T2, human Resistin-Like Molecule Beta (human, UniProt Q9BQ08 24-111, limits assumed).
T2 construct: also called hRELMβ; RELMβ
T2 sequence (looked up): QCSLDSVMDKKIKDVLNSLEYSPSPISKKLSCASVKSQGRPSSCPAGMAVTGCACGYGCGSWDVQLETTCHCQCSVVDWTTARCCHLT
Description: QC ELISA, hRELMβ coated 0.5 µg/well, IgG supernatant, FITC-goat anti-human IgG. Here is the method:
as §1

B1: Clone 1 rIgG (antibody, V domains shown)
VH: EVQLLESGGGLVQPGGSLRLSCAASGFTFSSYAMSWVRQAPGKGLEWVSSISQRGRKTLYADSVKGRFTISRDNSKNTLYLQMNSLRAEDTAVYYCAKGLRRFDYWGQGTLVTVSS
VL: DIQMTQSPSSLSASVGDRVTITCRASQSISSYLNWYQQKPGKAPKLLIYMASHLQSGVPSRFSGSGSGTDFTLTISSLQPEDFATYYCQQPRSTPLTFGQGTKVEIKR
notes: Fully human IgG1 converted from scFv, tested as supernatant of expressing cells; Possibly the same clone as Ab1
B1: the binding result in assay [1] and in assay [2] was “binds” in each case.

B2: Clone 18 rIgG (antibody, V domains shown)
VH: EVQLLESGGGLVQPGGSLRLSCAASGFTFSSYAMSWVRQAPGKGLEWVSTIHKTGSPTYYADSVKGRFTISRDNSKNTLYLQMNSLRAEDTAVYYCAKSLKYFDYWGQGTLVTVSS
VL: DIQMTQSPSSLSASVGDRVTITCRASQSISSYLNWYQQKPGKAPKLLIYRASHLQSGVPSRFSGSGSGTDFTLTISSLQPEDFATYYCQQPRSLPATFGQGTKVEIKR
notes: Fully human IgG1 converted from scFv, tested as supernatant of expressing cells
With B2, the binding result in assay [1] and in assay [2] was “binds” in each case.

B3: Clone 2 rIgG (antibody, V domains shown)
VH: EVQLLESGGGLVQPGGSLRLSCAASGFTFSSYAMSWVRQAPGKGLEWVSTITTTGTATWYADSVKGRFTISRDNSKNTLYLQMNSLRAEDTAVYYCAKTLQRFDYWGQGTLVTVSS
VL: DIQMTQSPSSLSASVGDRVTITCRASQSISSYLNWYQQKPGKAPKLLIYEASVLQSGVPSRFSGSGSGTDFTLTISSLQPEDFATYYCQQPRSLPMTFGQGTKVEIKR
notes: as for B2
In the case of B3, the binding result in assay [1] and in assay [2] was “binds” in each case.

B4: Clone 13 rIgG (antibody, V domains shown)
VH: EVQLLESGGGLVQPGGSLRLSCAASGFTFSSYAMSWVRQAPGKGLEWVSSIYPQGLRTYYADSVKGRFTISRDNSKNTLYLQMNSLRAEDTAVYYCAKNLAKFDYWGQGTLVTVSS
VL: DIQMTQSPSSLSASVGDRVTITCRASQSISSYLNWYQQKPGKAPKLLIYRASTLQSGVPSRFSGSGSGTDFTLTISSLQPEDFATYYCQQPRALPGTFGQGTKVEIKR
notes: Fully human IgG1 converted from scFv, tested as supernatant of expressing cells; Possibly the same clone as Ab13
Regarding B4, the binding result in assay [1] and in assay [2] was “binds” throughout.
